# Measured values reported in the supplement of paper PMC9112550, “Optimization of the antimicrobial peptide Bac7 by deep mutational scanning” (BMC Biology, 2022).
# System: Escherichia coli TOP10
# Test: shrunken log2 fold change of peptide-encoding DNA abundance (4.5 h post-induction vs induction); higher = less antimicrobial activity (less host growth inhibition)
# Conditions: time post-induction: 4.5 h; library: site-saturation at positions 5, 18, 19, 20
# 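Also: peptides expressed intracellularly from a pBAD plasmid library in pooled LB shake-flask culture, induced with 0.3% L-arabinose, DNA abundance read by NGS, three biological replicates, DESeq2 with apeglm shrinkage.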
row,Sequence,shrunken log2 fold change
1,RRIRRRPPRLPRPRPRPGQSPRP,0.155
2,RRIRRRPPRLPRPRPRPGSEPRP,0.00207
3,RRIRRRPPRLPRPRPRPGSRPRP,0.155
4,RRIRRRPPRLPRPRPRPGVMPRP,0.245
5,RRIRRRPPRLPRPRPRPGVSPRP,0.249
6,RRIRRRPPRLPRPRPRPGWEPRP,0.393
7,RRIRRRPPRLPRPRPRPGWMPRP,0.0476
8,RRIRRRPPRLPRPRPRPHARPRP,0.586
9,RRIRRRPPRLPRPRPRPHCRPRP,0.103
10,RRIRRRPPRLPRPRPRPHDFPRP,0.103
11,RRIRRRPPRLPRPRPRPHDPPRP,-0.0379
12,RRIRRRPPRLPRPRPRPHFKPRP,-0.0168
13,RRIRRRPPRLPRPRPRPHFWPRP,0.51
14,RRIRRRPPRLPRPRPRPHGGPRP,0.0449
15,RRIRRRPPRLPRPRPRPHGLPRP,0.217
16,RRIRRRPPRLPRPRPRPHHTPRP,-0.408
17,RRIRRRPPRLPRPRPRPHIHPRP,-0.674
18,RRIRRRPPRLPRPRPRPHKDPRP,-0.11
19,RRIRRRPPRLPRPRPRPHKSPRP,-0.0141
20,RRIRRRPPRLPRPRPRPHLIPRP,-0.293
21,RRIRRRPPRLPRPRPRPHMMPRP,0.176
22,RRIRRRPPRLPRPRPRPHPWPRP,0.25
23,RRIRRRPPRLPRPRPRPHRRPRP,-0.000685
24,RRIRRRPPRLPRPRPRPHTAPRP,0.313
25,RRIRRRPPRLPRPRPRPHVAPRP,-0.138

row,Sequence,shrunken log2 fold change
1,RRIRRRPPRLPRPRPRPHVGPRP,0.0734
2,RRIRRRPPRLPRPRPRPHVIPRP,-0.0937
3,RRIRRRPPRLPRPRPRPHYQPRP,-0.319
4,RRIRRRPPRLPRPRPRPHYRPRP,-0.306
5,RRIRRRPPRLPRPRPRPHYTPRP,-0.313
6,RRIRRRPPRLPRPRPRPIANPRP,-0.195
7,RRIRRRPPRLPRPRPRPIASPRP,0.432
8,RRIRRRPPRLPRPRPRPICEPRP,0.356
9,RRIRRRPPRLPRPRPRPICFPRP,0.496
10,RRIRRRPPRLPRPRPRPICSPRP,0.0991
11,RRIRRRPPRLPRPRPRPIDLPRP,-0.115
12,RRIRRRPPRLPRPRPRPIDSPRP,-0.0316
13,RRIRRRPPRLPRPRPRPIGKPRP,-0.0155
14,RRIRRRPPRLPRPRPRPIGLPRP,-0.0953
15,RRIRRRPPRLPRPRPRPIHAPRP,-0.102
16,RRIRRRPPRLPRPRPRPIHDPRP,0.169
17,RRIRRRPPRLPRPRPRPIIDPRP,-0.125
18,RRIRRRPPRLPRPRPRPIIEPRP,0.0476
19,RRIRRRPPRLPRPRPRPIIPPRP,-0.36
20,RRIRRRPPRLPRPRPRPILGPRP,0.0385
21,RRIRRRPPRLPRPRPRPILLPRP,-0.149
22,RRIRRRPPRLPRPRPRPIMLPRP,-0.272
23,RRIRRRPPRLPRPRPRPIMMPRP,-0.00819
24,RRIRRRPPRLPRPRPRPINSPRP,-0.314
25,RRIRRRPPRLPRPRPRPINVPRP,-0.326

row,Sequence,shrunken log2 fold change
1,RRIRRRPPRLPRPRPRPINWPRP,-0.0685
2,RRIRRRPPRLPRPRPRPIQAPRP,-0.0046
3,RRIRRRPPRLPRPRPRPIRLPRP,-0.104
4,RRIRRRPPRLPRPRPRPIRPPRP,0.198
5,RRIRRRPPRLPRPRPRPIRRPRP,-0.0312
6,RRIRRRPPRLPRPRPRPISGPRP,0.0239
7,RRIRRRPPRLPRPRPRPITDPRP,-0.101
8,RRIRRRPPRLPRPRPRPITGPRP,0.111
9,RRIRRRPPRLPRPRPRPIWMPRP,0.0986
10,RRIRRRPPRLPRPRPRPKAVPRP,0.0693
11,RRIRRRPPRLPRPRPRPKDMPRP,-0.0599
12,RRIRRRPPRLPRPRPRPKFHPRP,0.323
13,RRIRRRPPRLPRPRPRPKFTPRP,-0.176
14,RRIRRRPPRLPRPRPRPKGFPRP,-0.12
15,RRIRRRPPRLPRPRPRPKHQPRP,1.57
16,RRIRRRPPRLPRPRPRPKIAPRP,0.147
17,RRIRRRPPRLPRPRPRPKIEPRP,0.0387
18,RRIRRRPPRLPRPRPRPKIRPRP,0.0898
19,RRIRRRPPRLPRPRPRPKLQPRP,0.179
20,RRIRRRPPRLPRPRPRPKMDPRP,-0.0711
21,RRIRRRPPRLPRPRPRPKMGPRP,-0.0227
22,RRIRRRPPRLPRPRPRPKPQPRP,0.403
23,RRIRRRPPRLPRPRPRPKSNPRP,0.0649
24,RRIRRRPPRLPRPRPRPKWWPRP,0.579
25,RRIRRRPPRLPRPRPRPKYFPRP,0.162
